Here are results for 21 molecules from US20220298212A1 (Molecular Partners, published 2022).

B1: DARPin® protein #7 (designed binder)
chain: MRGSHHHHHHGSDLGSKLLNAARKGQDDEVRILLAAGADVNAKDYYGQTPLHLAAVFGHLEIVEVLLKAGADVNAKDVLGRTPLHVAAYAGHLEIAEVLLKAGADVNAQDFDGFTPADLAAYVGLEDIAEVLQKLN
B2: DARPin® protein #3 (designed binder)
chain: MRGSHHHHHHGSDLGRKLLQAAQLGQDDEVRELLKAGADVNAKDSRGITPLHVAAWQGHLEIVEVLLKASADVNAKDHAGITPLHLAAFLGHLEIVEVLLKAGADVNAQDQEGRTPADLAALQGHEDIAKVLQKLN
B3: DARPin® protein #9 (designed binder)
chain: MRGSHHHHHHGSDLGEKLLHAAYYGQDDEVRILLAAGADVNAKDNIGVTPLHFAAYFGHLEIVEVLLKAGADVNAQDYYGKTPADLAAYHGHEDIAEVLQKLN
B4: DARPin® protein #10 (designed binder)
chain: MRGSHHHHHHGSDLGDKLLHAAYYGQDDEVRILLAAGADVNAKDNIGVTPLHFAAYFGHLEIVEVLLKAGADVNAQDYYGKTPADLAAYHGHEDIAEVLQKLN
B5: DARPin® protein #8 (designed binder)
chain: MRGSHHHHHHGSDLGKKLLEAARAGQDDEVRELLKAGADVNAKDRFGSTPLHIAAREGHLEIVEVLLKAGADVNAKDSWGATPLHIAAWRGHLEIVEVLLKAGADVNAKDRWGRTPLHIAAWTGHLEIVEVLLKACADVNAQDKSGKTPADLAADVGLEDIAEVLQKLN
B6: DARPin® protein #5 (designed binder)
chain: MRGSHHHHHHGSDLGKKLLEAARAGQDDEVRELLKAGADVNAKDQEHGSTPLHLAANYGHLEIVEVLLKAGADVNAKNWWGNTPLHLAAVYGHLEIVEVLLKAGADVNAKDNHGHTPLHLAAWYGHLEIVEVLLKAGADVNAQDKSGKTPADLAADAGHEDIAEVLQKAA
B7: DARPin® protein #19 (designed binder)
chain: MRGSHHHHHHGSDLGKKLLEAARAGQDDEVRELLKAGADVNAKDTHGWTPLHVAALEGHLEIVEVLLKAGAYVNAKDEWGQTPLHVAAWRGHLEIVEVLLKAGADVNAKDRYGWTPLHIAAWLGHLEIAEVLLKAGADVNAQDKSGKTPADLAADAGQEDIVEVLQKLN
B8: DARPin® protein #13 (designed binder)
chain: MRGSHHHHHHGSDLGLKLLYAAAEGQDDEVRILLAAGADVNAKDTRGQTPLHYAAWFGHLEIVEVLLKAGADVNAKDWSGDTPLHVAAWRGHLEIVEVLLKAGADVNAQDNSGNTPADLAAWIGHEDIAEVLQKLN
B9: DARPin® protein #17 (designed binder)
chain: MRGSHHHHHHGSDLGEKLLYAAYYGQDDEVRILLAAGADVNAKDHVGLTPLHYAAAIGHLEIVEVLLKAGADVNAKDHYGYTPLHYAAYKGHLEIVEVLLKAGADVNAQDSAGHTPADLAAHHGHEDIAEVLQKLN
B10: DARPin® protein #4 (designed binder)
chain: MRGSHHHHHHGSDLGKKLLEAARAGQDDEVRELLKAGADVNAKDTYGETPLHLAAWKGHLEIVEVLLKAGADVNAKDSIGITPLHVAAHHGHLEIVEVLLKAGADVNAKDKWGRTPLHLAALLGHLEIAEVLLKAGADVNAQDKSGKTPADLAADAGHDDIAEVLQKLN
B11: DARPin® protein #25 (designed binder)
chain: MRGSHHHHHHGSDLGKKLLEAARAGQDDEVRELLKAGADVNAKDEWGETPLHLAAWKGHLEIVEVLLKAGADVNAKDSIGITPLHVAAHHGHLEIVEVLLKAGADVNAKDKWGRTPLHLAALLGHLEIVEVLLKAGADVNAQDKSGKTPADLAADAGREDIAEVLQKLN
B12: DARPin® protein #16 (designed binder)
chain: MRGSHHHHHHGSDLGAKLLNAAFFGQDDEVRILLAAGADVNAKDDYGHTPLHWAAVTGHLEIVEVLLKAGADVNAKDWLGETPLHHAAYEGHLEIVEVLLKAGADVNAQDEQGETPADLAAYEGHEDIAEVLLKAGADVNAQDDKGFTPADLAAIVGHEDIAEVLQKLN
B13: DARPin® protein #21 (designed binder)
chain: MRGSHHHHHHGSDLGEKLLTAAYYGQDDEVRILLAAGADVNAKDKQGLTPLHYAAAVGHLEIVEVLLKAGTDVNAKDFYGETPLHLAASRGHLEIVEVLLKAGADVNAQDKSGKTPADLAADAGHEDIAEVLQKAA
B14: DARPin® protein #14 (designed binder)
chain: MRGSHHHHHHGSDLGQKLLYAAFYGQDDEVRILLAAGADVNAKDFFGTTPLHWAAHAGHLEIVEVLLKAGADVNAKDQWGTTPLHYAAYYGHLEIVEVLLKAGADVNAQDDKGFTPADLAAIVGHEDIAEVLQKLN
B15: DARPin® protein #11 (designed binder)
chain: MRGSHHHHHHGSDLGWKLLSAAWQGQDDEVRILLAAGADVNAKDTFGTTPLHWAAHAGHLEIVEVLLKAGADVNAKDQWGTTPLHYAAYYGHLEIVEVLLKAGADVNAQDDKGFTPADLAAIVGHEDIAEVLQKLN
B16: DARPin® protein #12 (designed binder)
chain: MRGSHHHHHHGSDLGQKLLHTAYDGQDDEVRILLAAGADVNAKDFFGTTPLHWAAHAGHLEIVEVLLKAGADVNAKDQWGTTPLHYAAYYGHLEIVEVLLKAGADVNAQDDKGFTPADLAAIVGHEDIAEVLQKLN
B17: DARPin® protein #15 (designed binder)
chain: MRGSHHHHHHGSDLGQKLLYAAYYGQDDEVRILLAAGADVNAKDFFGTTPLHWAAHAGHLEIVEVLLKAGADVNAKDQWGTTPLHYAAYQGHLEIVEVLLKAGADVNAQDTTGATPADLAAQAGHEDIAEVLQKLN
B18: DARPin® protein #2 (designed binder)
chain: MRGSHHHHHHGSDLGKKLLVAANVGQDDEVRILLAAGADVNAKDYHGYTPLHHAATYGHLEIVEVLLKAGADVNAKDQTGLTPLHLAAAKGHLEIVEVLLKAGADVNAQDHHGYTPADLAAFVGHEDIAVVLQKLN
B19: DARPin® protein #6 (designed binder)
chain: MRGSHHHHHHGSDLGKKLLVAANVGQDDEVRILLAAGADVNAKDYHGYTPLHHAATYGHLEIVEVLLKAGADVNAKDQTGLTPLHLAAAKGHLEIVEVLLKAGADVNAQDHHGYTPADLAAFVGHEDIAVVLQKLN
B20: DARPin® protein #18 (designed binder)
chain: MRGSHHHHHHGSDLGYKLLYAAAYGQDDEVRILLAAGADVNAKDQYGETPLHHAASHGHLEIVEVLLKAGADVNAKDTLGDTPLHLAAVVGHLEIVEVLLKAGADVNAQDTEGKTPADLAAYTGHEDIAEVLQKLN
B21: DARPin® protein #1 (designed binder)
chain: MRGSHHHHHHGSDLGQKLLKAAQEGQDDEVRELLKAGADVNAKDLRGITPLHVAAWQGHLEIVEVLLKAGADVNAKDSKGETPLHLAAFRGHLEIVEVLLKAGADVNAQDQQGETPADLAALAGHVDIAEVLQKAA

In the assay the target is T1, biotinylated human 4-1BB (recombinant Fc fusion protein of the extracellular domain of human 4-1BB) (human, UniProt Q07011 24-186, biotinylated (site not stated)).
T1 construct: Bought from BPS Bioscience; tie to the Fc fusion is by the Materials paragraph; also called h4-1BB; CD137; not shown: Fc part of the purchased fusion (BPS Bioscience)
The assay can be described thus: SPR (ProteOn), biotinylated human 4-1BB on NLC chip, PBST. As for the experimental part:
Briefly, biotinylated human 4-1 BB was diluted in PBST (PBS, pH 7.4 containing 0.005% Tween 20®) and coated on a NLC chip (BioRad) to a level of around 320 resonance units (RU) (600 RU for single trace SPR measurements). The interaction of ankyrin repeat protein and h4-1 BB was then measured by injecting 200 μl running buffer (PBS, pH 7.4 containing 0.005% Tween 20®) containing serial dilutions of ankyrin repeat proteins covering a concentration range between 50 nM and 0.5 nM for multi-trace SPR measurements or 50 nM for single trace measurements (on-rate measurement), followed by a running buffer flow for at least 30 minutes at a constant flow rate of 100 μl/min (off-rate measurement). The regeneration was performed using 30 μl of 10 mM Glycine pH 2 followed by 30 μl of 124 mM H₃PO₄. The signals (i.e. resonance unit (RU) values) of the interspots and a reference injection (i.e. injection of running buffer only) were subtracted from the RU traces obtained after injection of ankyrin repeat protein (double-referencing). Based on the SPR traces obtained from the on-rate and off-rate measurements, the on- and off-rate of the corresponding ankyrin repeat protein—4-1 BB interaction was determined.
Dissociation constants (KD) were calculated from the estimated on- and off-rates using standard procedures known to the person skilled in the art.
For orientation: Kd means the equilibrium constant for the complex coming apart. Regarding B1, the Kd was 0.54 nM.

In the case of B2, the Kd was 1.25 nM.

With B3, the Kd was 0.19 nM.

As for B4, the Kd was 0.25 nM.

For the molecule B5, the Kd came out at 0.02 nM.

On to B6, for which the Kd was found to be 0.35 nM.

For B7, the Kd stood at 1.6 nM.

Take B8: the dissociation constant (Kd) stood at 0.69 nM.

On to B9, for which the Kd amounted to 0.5 nM.

Take B10: the Kd was 2.25 nM.

Take B11: the Kd was found to be 1.56 nM.

Turning to B12, the Kd came to 1.6 nM.

For B13, the Kd is 0.16 nM.

Turning to B14, the Kd turned out to be 0.51 nM.

Regarding B15, the equilibrium dissociation constant (Kd) was 0.38 nM.

Consider B16, for which the Kd came out at 0.74 nM.

As for B17, the dissociation constant (Kd) came to 5 nM.

B18: the Kd worked out at 0.86 nM.

Turning to B19, the Kd stood at 2.58 nM.

As for B20, the Kd was found to be 1.47 nM.

In the case of B21, the Kd worked out at 0.47 nM.
